Like-named read-outs stand apart in the source and are kept apart here.
How the values were obtained:
[1] = target: mitochondrial mitofusins; assay: cell-based or functional assay
[2] = target: mitochondrial mitofusins; assay: cell-based or functional assay; remark: listed apart in the source

## TAT-398-418Gly (peptide)
[1]
  EC50 of mitochondrial shortening (suppressed fusion), mitochondrial aspect ratio in MEFs: 250 nM

## TAT-367-384Gly (peptide)
[1]
  EC50 of mitochondrial elongation (enhanced fusion), mitochondrial aspect ratio in MEFs: 280 nM

B1: TetherX-C fusion construct (peptide)
peptide: GELLAQDYKLRGGYGRKKRRQRRR
[2]
  EC50 of mitochondrial shortening (suppressed fusion), mitochondrial aspect ratio in MEFs: 171 nM

B2: GoFuse-C fusion construct (peptide)
peptide: GIMDSLHMAARGGYGRKKRRQRRR
[2]
  EC50 of mitochondrial elongation (enhanced fusion), mitochondrial aspect ratio in MEFs: 389 nM

— patent US20180080926A1
